Numbering of substitutions follows the chain as printed. Names may count otherwise.
B1: L46A human Macrophage Migration Inhibitory Factor (natural protein, UniProt P14174 1-115, looked up)
chain: MPMFIVNTNVPRASVPDGFLSELTQQLAQATGKPPQYIAVHVVPDQAMAFGGSSEPCALCSLHSIGKIGGAQNRSYSKLLCGLLAERLRISPDRVYINYYDMNAANVGWNNSTFA
notes: initiator methionine cleaved, measured mass 12303 g/mol; numbers count on: the mature protein starting at Pro-1 (without the initiator methionine); No tag is named; also called L46A huMIF; L46A MIF; source: more than 95% pure
B2: L46F human Macrophage Migration Inhibitory Factor (natural protein, UniProt P14174 1-115, looked up)
chain: B1 chain with A47F
notes: initiator methionine cleaved, measured mass 12379 g/mol; numbers count on: the mature protein starting at Pro-1 (without the initiator methionine); No tag is named; also called L46F huMIF; L46F MIF; source: more than 95% pure
B3: L46G human Macrophage Migration Inhibitory Factor (natural protein, UniProt P14174 1-115, looked up)
chain: B1 chain with A47G
notes: initiator methionine cleaved, measured mass 12289 g/mol; numbers count on: the mature protein starting at Pro-1 (without the initiator methionine); No tag is named; also called L46G huMIF; L46G MIF; source: more than 95% pure

Biological target: the molecule itself
Experiment: AUC; sedimentation velocity, 50,000 rpm, 20°C, PBS 1X pH 7.4, protein 5-50 µM (15 µM in Figure 3); c(s) analysis with SEDFIT; oligomeric state of the protein with itself

Protein | stoichiometry N
B1 | 3
B2 | 3
B3 | 3
